According to US20180153986A1 (BRIGHAM AND WOMEN S HOSPITAL, published 2018):

Biological target: T1, human CEACAM1 (carcinoembryonic antigen related cell adhesion molecule 1) (human, UniProt P13688 35-526, limits assumed)
T1 construct: also called hCEACAM1; BGP
T1 sequence: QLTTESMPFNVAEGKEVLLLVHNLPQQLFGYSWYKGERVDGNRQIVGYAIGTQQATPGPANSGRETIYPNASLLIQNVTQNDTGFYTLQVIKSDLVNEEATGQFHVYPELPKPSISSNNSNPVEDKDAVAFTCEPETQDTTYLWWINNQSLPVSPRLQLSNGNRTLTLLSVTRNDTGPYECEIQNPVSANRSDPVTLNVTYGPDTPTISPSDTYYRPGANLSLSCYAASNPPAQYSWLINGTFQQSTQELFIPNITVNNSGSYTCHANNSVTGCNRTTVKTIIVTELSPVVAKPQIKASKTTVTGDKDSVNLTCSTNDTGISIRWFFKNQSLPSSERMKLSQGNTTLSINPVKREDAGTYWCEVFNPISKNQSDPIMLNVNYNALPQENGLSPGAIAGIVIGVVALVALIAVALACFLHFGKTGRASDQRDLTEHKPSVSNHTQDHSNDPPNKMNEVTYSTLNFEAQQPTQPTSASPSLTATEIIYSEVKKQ
Assay: method not described ('as demonstrated herein'); support is structural prediction and co-expression

B1: human TIM-1 (T-cell immunoglobulin and mucin domain-containing protein 1) (receptor)
chain: SVKVGGEAGPSVTLPCHYSGAVTSMCWNRGSCSLFTCQNGIVWTNGTHVTYRKDTRYKLLGDLSRRDVSLTIENTAVSDSGVYCCRVEHRGWFNDMKITVSLEIVPPKVTTTPIVTTVPTVTTVRTSTTVPTTTTVPTTTVPTTMSIPTTTTVLTTMTVSTTTSVPTTTSIPTTTSVPVTTTVSTFVPPMPLPRQNHEPVATSPSSPQPAETHPTTLQGAIRREPTSSPLYSYTTDGNDTVTESSDGLWNNNQTQLFLEHSLLTANTTKGIYAGVCISVLVLLALLGVIIAKKYFFKKEVQQLSVSFSSLQIKALQNAVEKEVQAEDNIYIENSLYATD
notes: also called HAVCR; HAVCR-1
binding result: binds
